Data: patent EP1270739A1
Values joined by “and” are separate entries in the source; they are usually repeats but may differ in a detail not shown here. Identical values can stand only once.

Columns and labels:
[1] = target: purified human placental alkaline phosphatase (hPLAP, SIGMA) (human) (UniProt P05187); experiment: ELISA, plate coated with purified hPLAP; row labelled '0' (not explained, presumably no sample, blank); anti-mouse-HRP, TMB
[2] = target: purified human placental alkaline phosphatase (hPLAP, SIGMA) (human) (UniProt P05187); experiment: ELISA, plate coated with purified hPLAP; mAb 64 ng/ml in PBS, undiluted; anti-mouse-HRP, TMB
[3] = target: purified human placental alkaline phosphatase (hPLAP, SIGMA) (human) (UniProt P05187); experiment: ELISA, plate coated with purified hPLAP; mAb 64 ng/ml in PBS, diluted 1:2; anti-mouse-HRP, TMB
[4] = target: purified human placental alkaline phosphatase (hPLAP, SIGMA) (human) (UniProt P05187); experiment: ELISA, plate coated with purified hPLAP; mAb 64 ng/ml in PBS, diluted 1:4; anti-mouse-HRP, TMB
[5] = target: purified human placental alkaline phosphatase (hPLAP, SIGMA) (human) (UniProt P05187); experiment: ELISA, plate coated with purified hPLAP; mAb 64 ng/ml in PBS, diluted 1:8; anti-mouse-HRP, TMB
[6] = target: purified human placental alkaline phosphatase (hPLAP, SIGMA) (human) (UniProt P05187); experiment: ELISA, plate coated with purified hPLAP; mAb 64 ng/ml in PBS, diluted 1:16; anti-mouse-HRP, TMB
[7] = target: purified human placental alkaline phosphatase (hPLAP, SIGMA) (human) (UniProt P05187); experiment: ELISA, plate coated with purified hPLAP; mAb 64 ng/ml in PBS, diluted 1:32; anti-mouse-HRP, TMB
[8] = target: purified human placental alkaline phosphatase (hPLAP, SIGMA) (human) (UniProt P05187); experiment: ELISA, plate coated with purified hPLAP; mAb 64 ng/ml in PBS, diluted 1:64; anti-mouse-HRP, TMB
[9] = target: purified human placental alkaline phosphatase (hPLAP, SIGMA) (human) (UniProt P05187); experiment: ELISA, plate coated with purified hPLAP; mAb 64 ng/ml spiked in negative serum, undiluted; anti-mouse-HRP, TMB
[10] = target: purified human placental alkaline phosphatase (hPLAP, SIGMA) (human) (UniProt P05187); experiment: ELISA, plate coated with purified hPLAP; mAb 64 ng/ml spiked in negative serum, diluted 1:2; anti-mouse-HRP, TMB
[11] = target: purified human placental alkaline phosphatase (hPLAP, SIGMA) (human) (UniProt P05187); experiment: ELISA, plate coated with purified hPLAP; mAb 64 ng/ml spiked in negative serum, diluted 1:4; anti-mouse-HRP, TMB
[12] = target: purified human placental alkaline phosphatase (hPLAP, SIGMA) (human) (UniProt P05187); experiment: ELISA, plate coated with purified hPLAP; mAb 64 ng/ml spiked in negative serum, diluted 1:8; anti-mouse-HRP, TMB
[13] = target: purified human placental alkaline phosphatase (hPLAP, SIGMA) (human) (UniProt P05187); experiment: ELISA, plate coated with purified hPLAP; mAb 64 ng/ml spiked in negative serum, diluted 1:16; anti-mouse-HRP, TMB
[14] = target: purified human placental alkaline phosphatase (hPLAP, SIGMA) (human) (UniProt P05187); experiment: ELISA, plate coated with purified hPLAP; mAb 64 ng/ml spiked in negative serum, diluted 1:32; anti-mouse-HRP, TMB
[15] = target: purified human placental alkaline phosphatase (hPLAP, SIGMA) (human) (UniProt P05187); experiment: ELISA, plate coated with purified hPLAP; mAb 64 ng/ml spiked in negative serum, diluted 1:64; anti-mouse-HRP, TMB

UniProt P05187, sequence (P05187 23-506 limits assumed): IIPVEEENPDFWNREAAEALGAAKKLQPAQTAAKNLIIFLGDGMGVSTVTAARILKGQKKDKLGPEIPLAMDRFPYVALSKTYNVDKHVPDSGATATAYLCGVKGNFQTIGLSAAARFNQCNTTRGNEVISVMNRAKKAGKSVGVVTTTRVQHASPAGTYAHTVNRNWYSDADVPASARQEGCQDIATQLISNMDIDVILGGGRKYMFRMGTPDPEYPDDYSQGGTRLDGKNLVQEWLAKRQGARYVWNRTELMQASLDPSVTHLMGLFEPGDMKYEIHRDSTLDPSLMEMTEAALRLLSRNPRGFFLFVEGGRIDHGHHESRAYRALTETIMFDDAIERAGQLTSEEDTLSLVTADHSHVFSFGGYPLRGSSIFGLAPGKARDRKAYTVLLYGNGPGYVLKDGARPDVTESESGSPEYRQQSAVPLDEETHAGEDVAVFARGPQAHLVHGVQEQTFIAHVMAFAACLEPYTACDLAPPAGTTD

absorbance at 450 nm [1] | absorbance at 450 nm [2] | absorbance at 450 nm [3] | absorbance at 450 nm [4] | absorbance at 450 nm [5] | absorbance at 450 nm [6] | absorbance at 450 nm [7] | absorbance at 450 nm [8] | absorbance at 450 nm [9] | absorbance at 450 nm [10] | absorbance at 450 nm [11] | absorbance at 450 nm [12] | absorbance at 450 nm [13] | absorbance at 450 nm [14] | absorbance at 450 nm [15] | Substance
0.005 absorbance | – | – | – | – | – | – | – | – | – | – | – | – | – | – | serum of mice injected with saline (negative control serum)
0.007 absorbance and 0.009 absorbance | 0.486 absorbance | 0.487 absorbance | 0.424 absorbance | 0.282 absorbance | 0.169 absorbance | 0.091 absorbance | 0.047 absorbance | 0.546 absorbance | 0.439 absorbance | 0.341 absorbance | 0.209 absorbance | 0.123 absorbance | 0.071 absorbance | 0.042 absorbance | mouse monoclonal antibody to PLAP (clone 8B6, Sigma Immunochemicals)
